Data from patent US20060088847.

Sequence of GST-B23 protein, P06748 (P06748 whole entry): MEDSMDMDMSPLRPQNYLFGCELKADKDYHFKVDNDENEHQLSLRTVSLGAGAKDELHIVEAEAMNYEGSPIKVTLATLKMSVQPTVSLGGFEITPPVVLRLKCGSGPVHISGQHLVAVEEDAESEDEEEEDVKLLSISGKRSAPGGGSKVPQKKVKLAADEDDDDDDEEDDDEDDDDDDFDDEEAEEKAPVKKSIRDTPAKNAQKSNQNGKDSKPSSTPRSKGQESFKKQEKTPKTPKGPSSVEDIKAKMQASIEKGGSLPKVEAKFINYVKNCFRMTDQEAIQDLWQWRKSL
Sequence of Flag-p53, P04637 (P04637 whole entry, looked up): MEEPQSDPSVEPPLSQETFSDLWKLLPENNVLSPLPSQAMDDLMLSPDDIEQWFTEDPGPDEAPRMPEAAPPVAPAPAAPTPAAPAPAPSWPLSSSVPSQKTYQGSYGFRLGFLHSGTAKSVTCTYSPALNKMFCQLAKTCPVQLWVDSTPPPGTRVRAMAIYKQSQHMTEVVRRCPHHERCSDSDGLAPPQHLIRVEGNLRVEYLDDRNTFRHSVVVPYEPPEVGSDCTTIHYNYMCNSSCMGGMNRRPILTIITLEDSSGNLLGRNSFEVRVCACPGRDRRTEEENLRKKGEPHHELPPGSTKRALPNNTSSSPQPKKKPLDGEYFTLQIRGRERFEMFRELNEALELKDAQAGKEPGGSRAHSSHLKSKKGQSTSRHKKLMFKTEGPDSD

B1: GST-ARF-BP1 (3760-4374) (protein)
chain: IQAAVRQLEAEADAIIQMVREGQRARRQQQAATSESSQSEASVRREESPMDVDQPSPSAQDTQSIASDGTPQGEKEKEERPPELPLLSEQLSLDELWDMLGECLKELEESHDQHAVLVLQPAVEAFFLVHATERESKPPVRDTRESQLAHIKDEPPPLSPAPLTPATPSSLDPFFSREPSSMHISSSLPPDTQKFLRFAETHRTVLNQILRQSTTHLADGPFAVLVDYIRVLDFDVKRKYFRQELERLDEGLRKEDMAVHVRRDHVFEDSYRELHRKSPEEMKNRLYIVFEGEEGQDAGGLLREWYMIISREMFNPMYALFRTSPGDRVTYTINPSSHCNPNHLSYFKFVGRIVAKAVYDNRLLECYFTRSFYKHILGKSVRYTDMESEDYHFYQGLVYLLENDVSTLGYDLTFSTEVQEFGVCEVRDLKPNGANILVTEENKKEYVHLVCQMRMTGAIRKQLAAFLEGFYEIIPKRLISIFTEQELELLISGLPTIDIDDLKSNTEYHKYQSNSIQIQWFWRALRSFDQADRAKFLQFVTGTSKVPLQGFAALEGMNGIQKFQIHRDDRSTDRLPSAHTCFNQLDLPAYESFEKLRHMLLLAIQECSEGFGLA
For B1, the “p53 ubiquitination, in vitro ubiquitination assay with purified components” value (Flag-p53, P04637) was “high levels of ubiquitinated p53 were generated by ARF-BP1 (lane 2)” and the “NPM/B23 ubiquitination, in vitro ubiquitination assay” value (GST-B23 protein, P06748) was “no significant ubiquitination of NPM/B23 was detected by Western blot analysis with the anti-NPM/B23 antibody”.
